Experimental findings from publication PMC2275160 are described below.

What all share (experiment): EMSA
One data set deals with T1, His6-Glis3(ZFD)4m (mouse, UniProt Q6XP49 345-496, C444A).
T1 sequence: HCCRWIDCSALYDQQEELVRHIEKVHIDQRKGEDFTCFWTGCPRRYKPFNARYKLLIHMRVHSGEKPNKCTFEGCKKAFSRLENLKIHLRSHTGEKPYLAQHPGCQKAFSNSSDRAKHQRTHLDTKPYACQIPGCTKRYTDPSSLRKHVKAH

The next data set addresses T2, His6-Glis3(ZFD)5m (mouse, UniProt Q6XP49 345-496, C474A).
T2 sequence: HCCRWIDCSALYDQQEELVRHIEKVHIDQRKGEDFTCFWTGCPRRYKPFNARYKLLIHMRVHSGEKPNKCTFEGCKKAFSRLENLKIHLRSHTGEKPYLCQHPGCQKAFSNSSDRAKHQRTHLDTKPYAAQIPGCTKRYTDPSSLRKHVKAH

For a further data set, the target named is T3, His6-Glis3(ZFD)1m (mouse, UniProt Q6XP49 345-496, C347A).
T3 sequence: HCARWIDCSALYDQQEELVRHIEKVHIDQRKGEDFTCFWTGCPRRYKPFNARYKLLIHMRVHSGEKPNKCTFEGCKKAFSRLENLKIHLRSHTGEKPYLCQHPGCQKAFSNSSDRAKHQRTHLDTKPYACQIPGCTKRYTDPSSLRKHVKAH

A further data set has as its target T4, His6-Glis3(ZFD)2m (mouse, UniProt Q6XP49 345-496, C381A).
T4 sequence: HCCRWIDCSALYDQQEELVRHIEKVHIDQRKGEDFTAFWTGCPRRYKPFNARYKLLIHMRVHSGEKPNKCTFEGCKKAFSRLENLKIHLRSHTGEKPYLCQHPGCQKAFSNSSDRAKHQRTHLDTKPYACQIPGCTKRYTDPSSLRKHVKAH

The target in a further data set is T5, His6-Glis3(ZFD)3m (mouse, UniProt Q6XP49 345-496, C414A).
T5 sequence: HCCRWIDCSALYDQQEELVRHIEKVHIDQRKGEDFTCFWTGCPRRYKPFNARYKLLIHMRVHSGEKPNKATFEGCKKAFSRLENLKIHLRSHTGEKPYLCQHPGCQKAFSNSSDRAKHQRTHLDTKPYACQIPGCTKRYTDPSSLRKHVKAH

The next data set has as its target T6, His6-Glis3(ZFD) (mouse, UniProt Q6XP49 345-496).
T6 sequence: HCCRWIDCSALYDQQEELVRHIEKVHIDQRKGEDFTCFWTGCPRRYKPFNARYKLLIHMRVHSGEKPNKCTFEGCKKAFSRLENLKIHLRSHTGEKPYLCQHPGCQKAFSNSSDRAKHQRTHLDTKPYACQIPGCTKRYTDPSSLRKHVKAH

B1: Glis-BS consensus (dsDNA)
DNA 1: CGTGGGGGGTC
DNA 2: GACCCCCCACG
Regarding B1, the binding result with His6-Glis3(ZFD)4m, in the data set with His6-Glis3(ZFD)5m, with His6-Glis3(ZFD)1m, with His6-Glis3(ZFD)2m and with His6-Glis3(ZFD)3m was “no binding” throughout. In the data set with His6-Glis3(ZFD), this molecule registered a Kd of 3.69 ± 0.26 nM.
